Reference: patent US12678474B2, “Screening of fixed-point coupling sites of cysteine-modified antibody-toxin conjugate (TDC)” (SICHUAN BAILI PHARMACEUTICAL CO. LTD., priority 2017, dated 2026)

Columns and labels:
[1] = biological target: T1, Recombinant EGFRVIII-His*6 antigen (Homo sapiens, UniProt P00533, DELINS30-297G); experiment: ELISA relative affinity for EGFRvIII; type: binding; conditions: for EC50: EGFRvIII-coated plates, A450, read-out: EC50 (nM), mutant antibody affinity
T1 construct: His*6
Excerpt: Insertion Mutation Modification and Parent Antibody 2A1 for EGFRvIII • ELISA was used to compare the relative affinities of 2A1-LC-Cys110ins-mc-vc-PAB-MMAE TDC, 2A1-LC-Cys111ins-mc-vc-PAB-MMAE TDC, 2A1-LC-Cys142ins-mc-vc-PAB-MMAE TDC, 2A1-HC-Cys254ins-mc-vc-PAB-MMAE TDC, 2A1-HC-Cys255ins-mc-vc-PAB-MMAE TDC, 2A1-HC-Cys258ins-mc-vc-PAB-MMAE TDC, 2A1-HC-Cys259ins-mc-vc-PAB-MMAE TDC, 2A1-HC-Cys354ins-mc-vc-PAB-MMAE TDC, 2A1-HC-Cys355ins-mc-vc-PAB-MMAE TDC, 2A1-HC-Cys357ins-mc-vc-PAB-MMAE TDC, 2A1-HC-Cys378ins-mc-vc-PAB-MMAE TDC, 2A1-HC-Cys379ins-mc-vc-PAB-MMAE TDC, 2A1-HC-Cys386ins-mc-vc-PAB-MMAE TDC, 2A1-HC-Cys387ins-mc-vc-PAB-MMAE TDC, 2A1-HC-Cys410ins-mc-vc-PAB-MMAE TDC, and 2A1 for EGFRvIII. The specific process used was as follows:
Recombinant […]-His*6 antigen was used to coat plates; fish skin gelatin was used as a seal; dilution of each insertion mutant antibody was performed separately, up to a maximum concentration 10 μg/ml and a 4-fold gradient dilution was performed for a total of 11 concentrations; HRP-labeled secondary antibodies were used for incubation; TMB was used for development and absorption detection was performed at 450 nm.

[2] = system: EGFRwt-overexpressing human skin squamous cell carcinoma cell line A431; experiment: MTS cytotoxicity (cell viability) assay, A431; type: cell-based; conditions: antibodies; 72 hours
Procedure: (§1) TDC cytotoxic activity was determined via the following experimental procedure: TDC was added to EGFR-overexpressing or […]-expressing human tumor cell culture medium, and cell viability was determined after 72 hours of cell culture. Cell-based in vitro experiments were used to determine cell viability, cytotoxicity and programmed cell death induced by TDC constituted by the present invention.
(§2) In vitro efficacy of antibody-toxin conjugates was determined via a cell proliferation assay. A CellTiter ^96® AqueousOne Solution Cell was Proliferation Assay purchased commercially from Promega Corp. (Madison, WI). CellTiter ^96® Aqueous One Solution Cell Proliferation Assay (a) is a colorimetric method used to detect the number of living cells in cell proliferation and cytotoxicity experiments. The above reagent contains the novel tetrazole compound [3-(4,5-dimethylthiazol-2-yl)-5-(3-carboxymethoxyphenyl)-2-(4-sulfophenyl)-2H-tetrazolium, inner salt; MTS) as well as an electronic coupling agent (phenazine ethosulfate; PES). […] This convenient “single solution” model is an improvement on the first generation of the CellTiter ^96® Aqueous Assay, in which the electronic coupling agent PMS was supplied separately from the MTS solution. MTS (Owen's reagent) is reduced by cellular organisms into a colored formazan product, which can be directly dissolved in culture medium (FIG. 1). This conversion is likely facilitated by NADPH NADH produced by dehydrogenase present in metabolically active cells. For the assay, a small amount of CellTiter ^96® Aqueous One Solution Reagent is added directly to the medium present in the wells of the culture plate, after which incubation is performed for 1 to 4 hours, followed by reading of the absorbance value at 490 nm using a microplate reader.
(§3) The amount of formazan product detected at 490 nm is proportional to the number of viable cells in culture. Because the formazan product of MTS is soluble in tissue culture medium, CellTiter ^96® Aqueous One Solution Assay requires fewer steps than the MTT or INT methods. A431 (EGFR-overexpressing cells) and U87-[…] (an […] mutant stable cell line) were used in the present invention as an investigative system for performing in vitro efficacy assays. In 96-well plates, cells were plated at 6000 cells/well and 24 hours later, antibody spiking was carried out. […] Cell viability was assayed via MTS 72 hours after treatment.

[3] = system: EFGRvIII-overexpressing human glioma cell line U87-EGFRvIII; experiment: MTS cytotoxicity (cell viability) assay, U87-EGFRvIII; type: cell-based; conditions: antibodies; 72 hours; read-out: IC50, U87MG-EGFRvIII (MTS)
Procedure: as §1, §2, §3

Molecule | Affinity for EGFRvIII relative to 2A1 (in words) [1] | EC50 [1] [nM] | IC50 [2] [µM] | IC50 [3] [µM]
2A1-HC-Cys379ins: 2A1 antibody with cysteine inserted at heavy chain position 379 (SEQ ID NO: 38) (antibody) heavy: DVQLQESGPSLVKPSQSLSLTCTVTGYSITSDFAWNWIRQFPGNKLEWMGYISYSGNTRYNPSLKSRISITRDTSKNQFFLQLNSVTIEDTATYYCVTAGRGFPYWGQGTLVTVSAASTKGPSVFPLAPSSKSTSGGTAALGCLVKDYFPEPVTVSWNSGALTSGVHTFPAVLQSSGLYSLSSVVTVPSSSLGTQTYICNVNHKPSNTKVDKRVEPKSCDKTHTCPPCPAPEFLGGPSVFLFPPKPKDTLMISRTPEVTCVVVDVSHEDPEVKFNWYVDGVEVHNAKTKPREEQYNSTYRVVSVLTVLHQDWLNGKEYKCKVSNKALPAPIEKTISKAKGQPREPQVYTLPPSRDELTKNQVSLTCLVKGFYPSDIAVEWECSNGQPENNYKTTPPVLDSDGSFFLYSKLTVDKSRWQQGNVFSCSVMHEALHNHYTQKSLSLSPG light: DILMTQSPSSMSVSLGDTVSITCHSSQDINSNIGWLQQRPGKSFKGLIYHGTNLDDEVPSRFSGSGSGADYSLTISSLESEDFADYYCVQYAQFPWTFGGGTKLEIKRTVAAPSVFIFPPSDEQLKSGTASVVCLLNNFYPREAKVQWKVDNALQSGNSQESVTEQDSKDSTYSLSSTLTLSKADYEKHKVYACEVTHQGLSSPVTKSFNRGEC | maintained 2A1 affinity | 0.0409 | > 10 | > 10
2A1-HC-Cys386ins: 2A1 antibody with cysteine inserted at heavy chain position 386 (SEQ ID NO: 40) (antibody) heavy: DVQLQESGPSLVKPSQSLSLTCTVTGYSITSDFAWNWIRQFPGNKLEWMGYISYSGNTRYNPSLKSRISITRDTSKNQFFLQLNSVTIEDTATYYCVTAGRGFPYWGQGTLVTVSAASTKGPSVFPLAPSSKSTSGGTAALGCLVKDYFPEPVTVSWNSGALTSGVHTFPAVLQSSGLYSLSSVVTVPSSSLGTQTYICNVNHKPSNTKVDKRVEPKSCDKTHTCPPCPAPEFLGGPSVFLFPPKPKDTLMISRTPEVTCVVVDVSHEDPEVKFNWYVDGVEVHNAKTKPREEQYNSTYRVVSVLTVLHQDWLNGKEYKCKVSNKALPAPIEKTISKAKGQPREPQVYTLPPSRDELTKNQVSLTCLVKGFYPSDIAVEWESNGQPENCNYKTTPPVLDSDGSFFLYSKLTVDKSRWQQGNVFSCSVMHEALHNHYTQKSLSLSPG light: DILMTQSPSSMSVSLGDTVSITCHSSQDINSNIGWLQQRPGKSFKGLIYHGTNLDDEVPSRFSGSGSGADYSLTISSLESEDFADYYCVQYAQFPWTFGGGTKLEIKRTVAAPSVFIFPPSDEQLKSGTASVVCLLNNFYPREAKVQWKVDNALQSGNSQESVTEQDSKDSTYSLSSTLTLSKADYEKHKVYACEVTHQGLSSPVTKSFNRGEC | maintained 2A1 affinity | 0.0435 | > 10 | > 10
2A1-HC-Cys254ins: 2A1 antibody with cysteine inserted at heavy chain position 254 (SEQ ID NO: 22) (antibody) heavy: DVQLQESGPSLVKPSQSLSLTCTVTGYSITSDFAWNWIRQFPGNKLEWMGYISYSGNTRYNPSLKSRISITRDTSKNQFFLQLNSVTIEDTATYYCVTAGRGFPYWGQGTLVTVSAASTKGPSVFPLAPSSKSTSGGTAALGCLVKDYFPEPVTVSWNSGALTSGVHTFPAVLQSSGLYSLSSVVTVPSSSLGTQTYICNVNHKPSNTKVDKRVEPKSCDKTHTCPPCPAPEFLGGPSVFLFPPKPKDTLMISRTPCEVTCVVVDVSHEDPEVKFNWYVDGVEVHNAKTKPREEQYNSTYRVVSVLTVLHQDWLNGKEYKCKVSNKALPAPIEKTISKAKGQPREPQVYTLPPSRDELTKNQVSLTCLVKGFYPSDIAVEWESNGQPENNYKTTPPVLDSDGSFFLYSKLTVDKSRWQQGNVFSCSVMHEALHNHYTQKSLSLSPG light: DILMTQSPSSMSVSLGDTVSITCHSSQDINSNIGWLQQRPGKSFKGLIYHGTNLDDEVPSRFSGSGSGADYSLTISSLESEDFADYYCVQYAQFPWTFGGGTKLEIKRTVAAPSVFIFPPSDEQLKSGTASVVCLLNNFYPREAKVQWKVDNALQSGNSQESVTEQDSKDSTYSLSSTLTLSKADYEKHKVYACEVTHQGLSSPVTKSFNRGEC | maintained 2A1 affinity | 0.0456 | > 10 | > 10
2A1-HC-Cys255ins: 2A1 antibody with cysteine inserted at heavy chain position 255 (SEQ ID NO: 24) (antibody) heavy: DVQLQESGPSLVKPSQSLSLTCTVTGYSITSDFAWNWIRQFPGNKLEWMGYISYSGNTRYNPSLKSRISITRDTSKNQFFLQLNSVTIEDTATYYCVTAGRGFPYWGQGTLVTVSAASTKGPSVFPLAPSSKSTSGGTAALGCLVKDYFPEPVTVSWNSGALTSGVHTFPAVLQSSGLYSLSSVVTVPSSSLGTQTYICNVNHKPSNTKVDKRVEPKSCDKTHTCPPCPAPEFLGGPSVFLFPPKPKDTLMISRTPECVTCVVVDVSHEDPEVKFNWYVDGVEVHNAKTKPREEQYNSTYRVVSVLTVLHQDWLNGKEYKCKVSNKALPAPIEKTISKAKGQPREPQVYTLPPSRDELTKNQVSLTCLVKGFYPSDIAVEWESNGQPENNYKTTPPVLDSDGSFFLYSKLTVDKSRWQQGNVFSCSVMHEALHNHYTQKSLSLSPG light: DILMTQSPSSMSVSLGDTVSITCHSSQDINSNIGWLQQRPGKSFKGLIYHGTNLDDEVPSRFSGSGSGADYSLTISSLESEDFADYYCVQYAQFPWTFGGGTKLEIKRTVAAPSVFIFPPSDEQLKSGTASVVCLLNNFYPREAKVQWKVDNALQSGNSQESVTEQDSKDSTYSLSSTLTLSKADYEKHKVYACEVTHQGLSSPVTKSFNRGEC | maintained 2A1 affinity | 0.039 | > 10 | > 10
2A1-HC-Cys258ins: 2A1 antibody with cysteine inserted at heavy chain position 258 (SEQ ID NO: 26) (antibody) heavy: DVQLQESGPSLVKPSQSLSLTCTVTGYSITSDFAWNWIRQFPGNKLEWMGYISYSGNTRYNPSLKSRISITRDTSKNQFFLQLNSVTIEDTATYYCVTAGRGFPYWGQGTLVTVSAASTKGPSVFPLAPSSKSTSGGTAALGCLVKDYFPEPVTVSWNSGALTSGVHTFPAVLQSSGLYSLSSVVTVPSSSLGTQTYICNVNHKPSNTKVDKRVEPKSCDKTHTCPPCPAPEFLGGPSVFLFPPKPKDTLMISRTPEVTCCVVVDVSHEDPEVKFNWYVDGVEVHNAKTKPREEQYNSTYRVVSVLTVLHQDWLNGKEYKCKVSNKALPAPIEKTISKAKGQPREPQVYTLPPSRDELTKNQVSLTCLVKGFYPSDIAVEWESNGQPENNYKTTPPVLDSDGSFFLYSKLTVDKSRWQQGNVFSCSVMHEALHNHYTQKSLSLSPG light: DILMTQSPSSMSVSLGDTVSITCHSSQDINSNIGWLQQRPGKSFKGLIYHGTNLDDEVPSRFSGSGSGADYSLTISSLESEDFADYYCVQYAQFPWTFGGGTKLEIKRTVAAPSVFIFPPSDEQLKSGTASVVCLLNNFYPREAKVQWKVDNALQSGNSQESVTEQDSKDSTYSLSSTLTLSKADYEKHKVYACEVTHQGLSSPVTKSFNRGEC | maintained 2A1 affinity | 0.0423 | > 10 | > 10
